Assay results as given in publication PMC2907741 (Biochemistry, 2009).
Like-named read-outs stand apart in the source and are kept apart here. Bridge positions count the residues as written; N and C are the ends. Ends that are not written are not given here.

B1: 5 kDa fragment of plasma gelsolin (173-225), D187N (domain or fragment, human)
chain: ATEVPVSWESFNNGNCFILDLGNNIHQWCGSNSNRYERLKATQVSKGIRDNER
modifications: disulfide 16-29
B2: 8 kDa fragment of plasma gelsolin (173-242), D187N (domain or fragment, human)
chain: ATEVPVSWESFNNGNCFILDLGNNIHQWCGSNSNRYERLKATQVSKGIRDNERSGRARVHVSEEGTEPEA
modifications: disulfide 16-29

Assays:
[1] = target: the molecule itself; experiment: thioflavin T fluorescence aggregation assay
[2] = target: the molecule itself; experiment: thioflavin T fluorescence aggregation assay; remark: listed apart in the source

Row | Protein | binding result [1] | binding result [2]
1 | B1 | binds | 
2 | B2 |  | binds
